The values below come from the NTF2 design screens of Basanta et al. (2020).

The data set is described as follows: protease stability score; higher = more stable; yeast display proteolysis, trypsin and chymotrypsin.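 Further: log10 excess protease needed over predicted unfolded state with 0 meaning unfolded.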
Sequence “DNENVNHVKTWFQNIQENNPDELIKLIDKDARLRVGDKEFHGREQAKKEIEKRIRHIELEFKHVQVDHHNGRVVAHAVYTQNRNGRPKKVNVRYVFQIHNGKIKRAEQDEDG” returned a protease stability score of 0.263.

Turning to “DEEDKMTELTSRMIQAVRQNDFHKIVDQFDKNVTFEVGDHRVHGRTQAQEWARHLLRRVDHATVNLKHVEVQGDTARVKMQLILDRNGRRETRTVIIEAEIDGDKVRAKKLSIG”, the protease stability score came to 1.66.

In the case of “DEDKRARKFADTMRKVLEKGNEEEFRDMMDKDVSFKYGDKEVRGREEAAKRLKDTVKRVDRVEVNIKSIHVQGDKVSIDMLIVNDHNGKHHHRRLVFYAKDDNGKLVVVKVTER”, the protease stability score amounted to 1.86.

With “DEEKHAKEVLDKFLKIAQEGDPKKMHELVDPNATFQVGDKEVHGRESAIESLQKFLEKVDHMRLEITEVRVRGNKFNIVAKLRADINGQKVDKRLIIVFTHHNGRLQMSHLRMD”, the protease stability score worked out at 2.34.

“DEEKQEQVLRDQNTNDPDQMERLLDENVKVDVGDEEIHGRETVVKFLRHFIDRIDHVDVRELSVRNGRFHIEVVYTFDGRRMRYILHMEVKDGHVKYQQIQATSDEDKKRLDEMES” showed a protease stability score of 2.38.

Consider “DERDAKKRIKDMIEALHTGDPDEFKRNLPPNARLEYGDKRVHGREQLAREVEKERKRFDHVEVKHIKVDNGRVHVELDLNVNGRTETRELVFNVSNGRVEEVHIRVP”, for which the protease stability score is -0.186.

Sequence “DREEAKKIRKNWETNNWDHFAHQADENVRVRVGDKKYHGHHKLLEIMHQIEKRIDHARFDHIDLDGEKLTVDFQMVVNGKKVRYVMFIKVSNGRIKEVNIQFTSEEEERRAQEALR” yielded a protease stability score of 0.732.

For “DDSRRATEFNKQYREVFRTGDPRKFEDYMDPNARAHYGDKELHGREQLRNYWKELTDNADHLDVQIHHLHVSGDDVNVDFQWNIDVNGENVQRKVVIIARLENGQVRAKQIVEK”, the protease stability score is -0.143.

For “DKEDWTRLTNVLEDNNEHQFQDMLDKDVKIDVGDKRIHGRERAKHFLRKYEREVDEITVYSINVSGDNVKVDRVAKHNGQSVRFVMVFRAHNGKVQEMRIEFRDERQKEIWNQLEQ”, the protease stability score turned out to be 0.231.

As to “DEEALKFAETFLEVLHKGNPDDLRRLIDENVEIKIGDHEIDGMDNAVKQLHTRIKEINMHIKVDSMKAQGDSIKIHFTREVHRDGRPDTRHATLIMRFNNGELQRFQVDDRQ”, the protease stability score stood at 0.335.

“DDDKQRKVEQVNRAWNEGDEETWKNNFDPNARVNVGEFNYEGMEEISKNIRDQKEQWRIEFKRMDLNMHGNKATAHFEATTNHNGNPDEFRKRLEAEFQGDRLKHMRVTEDR”: the protease stability score was -0.235.

For “DEELVKRAEDMIKAIQRGDEDRINQMVDPNADVRVGDQRYDGMHEYVTRLKSRQKRMRRSVSVESVTAKNGQVRIDAKMTRNDNGRPERFKHIIIIKAENGEIQVIHVHKSQ”, the protease stability score is -0.078.

The sequence “DREIQHQVTELLEARRRGDEKRLQQNFDPNARMRIGDKEWHGMDTAAEEIAHEQREMRFDVKSIEVRVSGNKVSVDNRYVLEHDGRPHEFVQHDDVEMSNGKFKTAEVKHDG” gave a protease stability score of -0.408.

Sequence “DEEVAQDVRRNVERGDWKRWAELADENARVSVGDNTYEGRNDWHKYVKDLEHQVDHFEVKHITIENGKIKVDFVLTVNGHEVRMKQVIVVTNGRISRLRIQATDTDVQRQLNEAMR” returned a protease stability score of -0.066.

As to “DESNREVYQKLLNAQTKGDEETAKELADPNASVQIGDKQIHGMDQYVKQMTRDKRRARVRIRDVRVDVQGDNIRVSAHFQEDHNGKPDERTMTQSYKVENGKMKSASVHSLS”, the protease stability score is -0.124.

As to “DEEKVKNHILEALNAMMTGDPDKVRRMVDKDARLRIGEKVFHGREEVSKAAEEFREQFDHITITDYRVEPGHARVHAVINVNGKNVEITIKATATNGKIQRIVLDPRAVERLKS”, the protease stability score stood at 0.926.

In the case of “DEDEKVRQLVRDLIEALRTNDQKRWVELADKDARLKVGDKSYHGREELAKQMKKLREHVDHVTMRVKRVEVHNGRISVDATLTYDINGKKNHQTVKMQFRRHNGQIRLVQIEME”, the protease stability score was determined as 0.174.

For the sequence “DEEHNKEVMENIITGNSDEMRKMVDPNAQLEIGDKRYHGRDQIDTFEHLMRDRVDNLEVKRYDLQGDKVHVDYVFVVNGKHARVRVSFSVKNGRFTQIRIEVTDEEVEKILREVQK”, the protease stability score was determined as 1.17.

For “DEDTLKKMAQKIADAIRKGDEDQMERLADEDARMSYGDTTWHGRQEVKKAVREFRNQFDHLTIKRITVKGEKVKIDAEFTVNGREVSFVVIAHVNNGRLKEVVVHFTDPDTLHEALK”, the protease stability score stood at 0.622.

With “DDHAVSFVEEMLRIEKTGNHQQLENKADPNAEAEYGDKTYHGMEDFARELVRQLREWRLDYKSIDVQAHNGRAEVDVDVLVDIDGEPVRFRVTIVFQQHNGRLKNQSMRMSTDQLRKQQR”, the protease stability score was determined as 0.121.

As to “DREVQEHIEQFWKVYRTGDEKRIVELLDPNVKFDYGDRTVEGRETVREEVKKHHDEQRVDFKSVDVKVTNGRIDVKVRAKYHHNGTPDEQKFTASASLNNGRVKHMSRQTSK”, the protease stability score was -0.181.

Sequence “DEETTDILNELLRAYQNNDSKRIVELADPNASANIGDKQYHGMEDAARTQVKRMRQIHVEIKHVSSDNQGEKIELEMRFVDNHNGKPEQSTRNMTVVMKNGKVDKFTIRDDG” registered a protease stability score of 0.085.

As to “DNEAARSARRNLKQIERGNEHKVREMADKNAHVRVGDKDLHGREDISTWVKKLKEEMRVRFDLRRVNDKGSTVDLDVTLEMTVNGKPVTMKVTAKLSIHNGKIQSLIWNISDEQKEQRKG”, the protease stability score is 0.336.

The sequence “DEKQNDVVDDFMRAVREGDPTQLKSLVDPNARIQIGDRTYTGMEEYVTHVHKDLRKMRIEIRIKDIKAHNGHARIEFEVINTDNGRPDKKRMDVEFRIHNGKLKEAQYKSDR” yielded a protease stability score of 0.766.

Sequence “DEDKKADEFMKRWIDNLQNGNEDELRKLIDPNARLDIGDKTLHGREDIVHHLSETLKRVDHLEIRVEHIEVQGDKATFVYHITMRTNGRTHSSEVQFEAEEHNGNLIIKSIHER” displayed a protease stability score of 1.57.

The sequence “DEDDNKIAKEWYKAIQRGDPDRVKQLVDPNVKIRIGDKDIRGRENFATEVERMRDEIEVVFKVKDMKDQGDKANVEYEYQTQSNGRPRTKSQTVNVSMHNGHVKHVNVRDDQ” had a protease stability score of -0.301.

In turn, “DEENLNRLDEFQQAVQTGDEKEAEELVDPNARVNVGDKQVNGMDKLRRTIHNKRRKMRVEIDHVNFRAKGNHVTARFDFHVNHNGTPRRTQMNVEARFKNGRIKSLRNESVS” showed a protease stability score of 0.121.

In the case of “DREEQKKVAKHMDDLVRTGDPREATDLIDPNAKADVGDKQYHGREQLHKLFKEQHERADHADLKSFDAHNGKVEVNVIIQVNGRRHRVIYHADADNGRVKFVSVRSS”, the protease stability score was -0.164.

With “DEEDYKSIATEFVQALREGDEQHFRRLLDEEVNNDVGDKRIRGREKVETELRKILHKVDHVDVKDYKVHNGHVTVDMRFDDNGKEERWTMQAQFHNGRLKSIWMRTR”, the protease stability score turned out to be 1.08.

As for “DEKDAREWVKDREQNDFDQISRMMDENVKLEYGNKEVHGRERVNTELKKEEETADHVSIDRVEVEEGRAVIDAVVRFNGKDFKMVVTVSMENGKVKYIRDRFTDEQLEEDFVKQFN”, the protease stability score is 0.728.

In turn, “DDEAVRAAKRAFEAWIENDPEKMKHQVDENAHLHYGDKEVHGREDANRQVHEDERQMRIELRSVTFQHHNGRAKIDMKYVLDHNGKPETRKFDATAEARNGKITKMSIDVHQ” gave a protease stability score of -0.077.

“DDKKVRLARSWMQNVRENNEERLQKLIDPNAKVRIGNKVVNGDEEFRRQVKHRKEHMRLDVEIESMTFQGDHVSATYVFRQNVNGTPYSDRVEVHIKMENGRIKHIDARVPEEKLRELSS” had a protease stability score of -0.106.

Consider “DEEVREVVKKMLEALKTGNSEQVRRNIDPNARLHVGEFDYHGQTQISEAVKRLSNEIKINYKDMKMRLHNGRVDVKVHQQNNSNGKPEEKTWRATIVAKNGRIKEIDQRDDK”, for which the protease stability score is -0.481.

Regarding “DETEDKKAQQLAKAINDGDEHDVRKMMDKDVKVDVGDKQLHGREQAAKWMSRHRREQRRTIEVTDVKMHGEKAELDANLRVDVNGQPRTHRVRIIVSITNGRLQHLEIHMDPRFEQSVQS”, the protease stability score is -0.25.

“DDSLEKELEDIMRTGNFEELVKNADKDARAQYGNRTYHGREDAKEAAHQFRKHVDSIQIDSIHRHNGHMEVDMQVNINGRNVRATMTIEAHNGRVKQFRVEVTDEEFHKTLHRLLE” gave a protease stability score of 0.929.

For the sequence “DEDERQDLARKYNKALKQGDSKKFEELVDKHVKVEVGETRFHGREQASKNFRELVDNFDEFEVKSLEVHGESVTVEAVARINGRTANIRFQRTIHNGKNQVVKLNPDDMRRNLK”, the protease stability score is -0.134.

On to “DREDHEHARTVFHNLQTGDFEEVKSLLDKNAKLTVGDRVLEGRDEIARQIRNELEEIRVEYVSVTFTVEGDKAQVHMVFKAEWNGNPADVRNVLRISQHNGRIKTMFIQISESQLEEYNR”, for which the protease stability score turned out to be 0.287.

Sequence “DEKETQKLLEKLAKYFVNGDLEKVKKVGKEDVEVEYGSERKHGPDAMKEHVETHKRLGIEVRYEEVHVEGDTVTAKVQADVAGHTAEMTVVYQAQGRRVDKVKLKYSEKAQKAIKHG” came in with a protease stability score of -0.133.

Sequence “DEHAQKLLEKEKDALERNNPDHFRDMVDKDARLRVGNKVIHGREQVSEDVERKRDEMRYRFEIKHVQVHNGQIDADVVQVVNVNGHPVRNKYRITVNVTNGRAKQVTVRIDEDTLRKMDR” gave a protease stability score of -0.027.

Take “DEEALKHAKKLLNIITNGNPSEAQKLFDPNAKAHIGDQTLTGREDYVRDLQEKKDRMRYKIKSMDAQTDGEKVRFDIKYDFNINGQPRHASVVIRLKLHNGKIVEIRVQIDPEQLKQHRQ”: the protease stability score was 1.09.

On to “DEELTKRAQKQINVLRTGDEKKVLELMDPNAKLSVGEKEYHGMEDIAKTLAQENRQMRIDVKDMKFTSKGDTVDVTLSYVVDHNGQPDEQVVRVHIVAHNGKIKSQEVRRDS”, for which the protease stability score is -0.762.

“DEELADLAHKLLEAYHTGNPDDVVRNMDPNARQTIGDRTVHGRENIKKMLRKVLQEWRIDIHLRSYHLNGNQVKLSADFNLTVNGKPDEFTATIIVIQHNGKIHEVQLRMPEQDFREITS” returned a protease stability score of 1.05.

“DDEDVNRHAESISRALERGDEERLLELLDENVTVEYGDKRVHGREEIERFLREFHRHADHIKVDRVKARGNKVRIRAVNDYDGRKVDYVFHFQFENGRVRKVKIEEK” had a protease stability score of 1.29.

“DEELERQFHEFLKALETNDPHRMRQLVDPNARIRVGDKRYHGMEEYAKDVVKKMEEARVSIDIKSIEVQGNHFVVEHEITRDQNGKPKTHRQRMFFTVKNGKVKEMQIEDQK”: the protease stability score turned out to be 0.596.

With “DEENLQKIAHKVVRALHDGDPHQMHDLFDKDARISYGDKSVHGRNEISKAAHEREERVDDIDFKSFSVKNGHVEVDAKYDHNGQRREVIVQVEMHNGRIKSARFTKK”, the protease stability score amounted to 0.2.

Sequence “DREDQEEVARHLVEVLERGDPQKMLELADPNVRAEVGDKRYHGREDLKSIMDELSRQVDRIQVVHLDVKGNTVRVTVKNRVNGVVVDLVIIFHFRNGKLRDVTIDARNEEQLKKREG” had a protease stability score of 0.754.

For the sequence “DHEAREIVEEYLKAIERNNPKKAQELVDPNVHFHYGDKRLDGREDLNEKIHRETKHQRVDIKSVSIDVQGDKVDVKVDVVDVHNGQPERYTFEVTYTFKNGQIQNADQKESG”, the protease stability score turned out to be 1.02.
